1 protein from US20190144884A1 (University of Pennsylvania, published 2019) can be followed below.

This data set concerns the molecule itself. Briefly: native gel, in-gel butyrylcholinesterase activity staining of mouse serum (self-association: dimer, tetramer).

B1: human butyrylcholinesterase (hBChE) expressed from AAV8.UbC.hIL2.BChE C1.IRES.PRIMA1.SV40 vector (enzyme)
chain: HTEDDIIIATKNGKVRGMNLTVFGGTVTAFLGIPYAQPPLGRLRFKKPQSLTKWSDIWNATKYANSCCQNIDQSFPGFHGSEMWNPNTDLSEDCLYLNVWIPAPKPKNATVLIWIYGGGFQTGTSSLHVYDGKFLARVERVIVVSMNYRVGALGFLALPGNPEAPGNMGLFDQQLALQWVQKNIAAFGGNPKSVTLFGESAGAASVSLHLLSPGSHSLFTRAILQSGSFNAPWAVTSLYEARNRTLNLAKLTGCSRENETEIIKCLRNKDPQEILLNEAFVVPYGTPLSVNFGPTVDGDFLTDMPDILLELGQFKKTQILVGVNKDEGTAFLVYGAPGFSKDNNSIITRKEFQEGLKIFFPGVSEFGKESILFHYTDWVDDQRPENYREALGDVVGDYNFICPALEFTKKFSEWGNNAFFYYFEHRSSKLPWPEWMGVMHGYEIEFVFGLPLERRDNYTKAEEILSRSIVKRWANFAKYGNPNETQNNSTSWPVFKSTEQKYLTLNTESTRIMTKLRAQQCRFWTSFFPKVLEMTGNIDEAEWEWKAGFHRWNNYMMDWKNQFNDYTSKKESCVGL
notes: Secreted into the serum of vector-injected RAG KO mice; also called hBuChE; Hu BChE
As for B1, the binding result is “binds”.
